{"source": "patent US20180155451A1", "about": "(published 2018)", "binders": {"B1": {"name": "GpH7-A5/GpH7-B3 variant L234_05P/GpL16-k0 (antibody, human IgG1, kappa)", "heavy 1": "not shown", "heavy 2": "not shown", "light": "DIVMTQSPLSLPVTPGEPASISCQASESLVHSNRNTYLHWYLQKPGQSPQLLIYKVSNRFSGVPDRFSGSGSGTDFTLKISRVEAEDVGVYYCSQNTHVPPTFGQGTKVEIERTVAAPSVFIFPPSDEQLKSGTASVVCLLNNFYPREAKVQWKVDNALQSGNSQESVTEQDSKDSTYSLSSTLTLSKADYEKHKVYACEVTHQGLSSPVTKSFNRGEC", "notes": "He Ab: alteration in the GpH7-B3 H chain only; also called He Ab"}, "B2": {"name": "GpH7-A5/GpH7-B3 variant L234_11K/GpL16-k0 (antibody, human IgG1, kappa)", "heavy 1": "not shown", "heavy 2": "not shown", "light": "B1 light", "notes": "as for B1"}, "B3": {"name": "GpH7-A5/GpH7-B3 variant L235_18N/GpL16-k0 (antibody, human IgG1, kappa)", "heavy 1": "not shown", "heavy 2": "not shown", "light": "B1 light", "notes": "as for B1"}, "B4": {"name": "GpH7-A5/GpH7-B3 variant L235_19Q/GpL16-k0 (antibody, human IgG1, kappa)", "heavy 1": "not shown", "heavy 2": "not shown", "light": "B1 light", "notes": "as for B1"}, "B5": {"name": "GpH7-A5/GpH7-B3 variant L235_11K/GpL16-k0 (antibody, human IgG1, kappa)", "heavy 1": "not shown", "heavy 2": "not shown", "light": "B1 light", "notes": "as for B1"}, "B6": {"name": "GpH7-A5/GpH7-B3 variant P238_02A/GpL16-k0 (antibody, human IgG1, kappa)", "heavy 1": "not shown", "heavy 2": "not shown", "light": "B1 light", "notes": "as for B1"}, "B7": {"name": "GpH7-A5/GpH7-B3 variant L234_14T/GpL16-k0 (antibody, human IgG1, kappa)", "heavy 1": "not shown", "heavy 2": "not shown", "light": "B1 light", "notes": "as for B1"}, "B8": {"name": "GpH7-A5/GpH7-B3 variant L234_12R/GpL16-k0 (antibody, human IgG1, kappa)", "heavy 1": "not shown", "heavy 2": "not shown", "light": "B1 light", "notes": "as for B1"}, "B9": {"name": "GpH7-A5/GpH7-B3 variant P238_01G/GpL16-k0 (antibody, human IgG1, kappa)", "heavy 1": "not shown", "heavy 2": "not shown", "light": "B1 light", "notes": "as for B1"}, "B10": {"name": "GpH7-A5/GpH7-B3 variant L234_19Q/GpL16-k0 (antibody, human IgG1, kappa)", "heavy 1": "not shown", "heavy 2": "not shown", "light": "B1 light", "notes": "as for B1"}, "B11": {"name": "GpH7-A5/GpH7-B3 variant L235_13S/GpL16-k0 (antibody, human IgG1, kappa)", "heavy 1": "not shown", "heavy 2": "not shown", "light": "B1 light", "notes": "as for B1"}, "B12": {"name": "GpH7-A5/GpH7-B3 variant L235_16H/GpL16-k0 (antibody, human IgG1, kappa)", "heavy 1": "not shown", "heavy 2": "not shown", "light": "B1 light", "notes": "as for B1"}, "B13": {"name": "GpH7-A5/GpH7-B3 variant L234_16H/GpL16-k0 (antibody, human IgG1, kappa)", "heavy 1": "not shown", "heavy 2": "not shown", "light": "B1 light", "notes": "as for B1"}, "B14": {"name": "GpH7-A5/GpH7-B3 variant L235_14T/GpL16-k0 (antibody, human IgG1, kappa)", "heavy 1": "not shown", "heavy 2": "not shown", "light": "B1 light", "notes": "as for B1"}, "B15": {"name": "GpH7-A5/GpH7-B3 variant L235_01G/GpL16-k0 (antibody, human IgG1, kappa)", "heavy 1": "not shown", "heavy 2": "not shown", "light": "B1 light", "notes": "as for B1"}}, "data": [{"target": "T1, FcγRIIa R (FcγRIIa, allotype R: Arg at position 131) extracellular domain with C-terminal His tag (human, UniProt P12318 34-217)", "T1 construct": "extracellular domain; also called FcgRIIa R; 2aR; not shown: His tag at the C terminus", "T1 sequence (looked up)": "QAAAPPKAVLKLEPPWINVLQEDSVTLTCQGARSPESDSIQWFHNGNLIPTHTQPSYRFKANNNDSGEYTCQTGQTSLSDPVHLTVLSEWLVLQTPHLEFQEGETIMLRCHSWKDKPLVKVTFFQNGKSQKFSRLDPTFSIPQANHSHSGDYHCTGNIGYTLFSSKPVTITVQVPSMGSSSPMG", "experiment": "ratio He/Con_2aR : He/Con_2b (FcgRIIa R over FcgRIIb), SPR Biacore", "experimental": "The heterodimerized antibodies He Abs in which one of the H chains was introduced with an alteration were assayed for their binding activities to each activating FcγR and inhibitory FcγR according to the method described in Example 4. […] The activating FcγRs in FIGS. 26, 27, 28, and 29 are FcγRIa, FcγRIIa (R), FcγRIIa (H), and FcγRIIIa, respectively.\nAnalysis of interaction between objective antibody and the FcγR was carried out using Biacore T100 (GE Healthcare). HBS-EP+ (GE Healthcare) was used as the running buffer, and the measurement temperature was set to 25° C. Chips produced by immobilizing the antigen peptide by the amine coupling method to a Series S Sencor Chip CM5 (GE Healthcare), or alternatively, chips produced by allowing preliminarily biotinylated antigen peptides to interact with and immobilize onto a Series S Sensor Chip SA (certified) (GE Healthcare) were used. Antibodies of interest were captured onto an antigen peptide-immobilized chip, and allowed to interact to each FcγR diluted with running buffer. To regenerate and repeatedly use the chip, the antibodies captured on the chip were washed off by reacting 10 mM glycine-HCl, pH 1.5.", "values": [{"binder": "B1", "He_2aR/2b (IIaR/IIb)": 1.23}, {"binder": "B2", "He_2aR/2b (IIaR/IIb)": 1.66}, {"binder": "B3", "He_2aR/2b (IIaR/IIb)": 1.21}, {"binder": "B4", "He_2aR/2b (IIaR/IIb)": 1.32}, {"binder": "B5", "He_2aR/2b (IIaR/IIb)": 1.72}, {"binder": "B6", "He_2aR/2b (IIaR/IIb)": 1.31}, {"binder": "B7", "He_2aR/2b (IIaR/IIb)": 1.24}, {"binder": "B8", "He_2aR/2b (IIaR/IIb)": 1.58}, {"binder": "B9", "He_2aR/2b (IIaR/IIb)": 1.34}, {"binder": "B10", "He_2aR/2b (IIaR/IIb)": 1.24}, {"binder": "B11", "He_2aR/2b (IIaR/IIb)": 1.36}, {"binder": "B12", "He_2aR/2b (IIaR/IIb)": 1.23}, {"binder": "B13", "He_2aR/2b (IIaR/IIb)": 1.21}, {"binder": "B14", "He_2aR/2b (IIaR/IIb)": 1.3}, {"binder": "B15", "He_2aR/2b (IIaR/IIb)": 1.37}]}, {"target": "T2, FcγRIIb extracellular domain with C-terminal His tag (human, UniProt P31994 43-217)", "T2 construct": "extracellular domain; also called FcgRIIb; 2b; not shown: His tag at the C terminus", "T2 sequence (looked up)": "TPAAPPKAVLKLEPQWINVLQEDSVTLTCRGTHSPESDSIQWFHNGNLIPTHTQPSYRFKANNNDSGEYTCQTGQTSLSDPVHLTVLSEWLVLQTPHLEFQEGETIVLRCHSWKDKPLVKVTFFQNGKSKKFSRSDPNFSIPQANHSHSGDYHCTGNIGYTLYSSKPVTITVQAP", "experiment": "SPR Biacore, antibody captured, FcgR analyte; vs HeCon Ab GpH7-A5/GpH7-B3/GpL16-k0 = 100", "units": {"He/Con_2b": "control = 100"}, "values": [{"binder": "B1", "He/Con_2b": 72.9}, {"binder": "B2", "He/Con_2b": 16.2}, {"binder": "B3", "He/Con_2b": 54.9}, {"binder": "B4", "He/Con_2b": 42.6}, {"binder": "B5", "He/Con_2b": 6.3}, {"binder": "B6", "He/Con_2b": 57.4}, {"binder": "B7", "He/Con_2b": 62.5}, {"binder": "B8", "He/Con_2b": 18.9}, {"binder": "B9", "He/Con_2b": 56}, {"binder": "B10", "He/Con_2b": 60.3}, {"binder": "B11", "He/Con_2b": 48.2}, {"binder": "B12", "He/Con_2b": 76.9}, {"binder": "B13", "He/Con_2b": 59.4}, {"binder": "B14", "He/Con_2b": 46.8}, {"binder": "B15", "He/Con_2b": 35.4}]}, {"target": "T1, FcγRIIa R (FcγRIIa, allotype R: Arg at …)", "experiment": "SPR Biacore, antibody captured, FcgR analyte; vs HeCon Ab GpH7-A5/GpH7-B3/GpL16-k0 = 100", "units": {"He/Con_2aR": "control = 100"}, "values": [{"binder": "B1", "He/Con_2aR": 89.6}, {"binder": "B2", "He/Con_2aR": 26.8}, {"binder": "B3", "He/Con_2aR": 66.5}, {"binder": "B4", "He/Con_2aR": 56.2}, {"binder": "B5", "He/Con_2aR": 10.8}, {"binder": "B6", "He/Con_2aR": 75.1}, {"binder": "B7", "He/Con_2aR": 77.5}, {"binder": "B8", "He/Con_2aR": 29.9}, {"binder": "B9", "He/Con_2aR": 75}, {"binder": "B10", "He/Con_2aR": 75.1}, {"binder": "B11", "He/Con_2aR": 65.3}, {"binder": "B12", "He/Con_2aR": 94.8}, {"binder": "B13", "He/Con_2aR": 71.8}, {"binder": "B14", "He/Con_2aR": 60.7}, {"binder": "B15", "He/Con_2aR": 48.5}]}]}
